Assay results as given in publication PMC12130793, “A conserved aspartate residue in [4Fe-4S]-containing HypD is required for [NiFe]-cofactor biosynthesis and for efficient interaction of the HypCD scaffold complex with HypE” (Metallomics: Integrated Biometal Science, 2025).
Changes are numbered by the printed parent chain. In names and notes the source's numbering stands.

B1: HypD (native, untagged) (natural protein, E. coli, UniProt P24192 1-373, looked up)
chain: MRFVDEYRAPEQVMQLIEHLRERASHLSYTAERPLRIMEVCGGHTHAIFKFGLDQLLPENVEFIHGPGCPVCVLPMGRIDTCVEIASHPEVIFCTFGDAMRVPGKQGSLLQAKARGADVRIVYSPMDALKLAQENPTRKVVFFGLGFETTMPTTAITLQQAKARDVQNFYFFCQHITLIPTLRSLLEQPDNGIDAFLAPGHVSMVIGTDAYNFIASDFHRPLVVAGFEPLDLLQGVVMLVQQKIAAHSKVENQYRRVVPDAGNLLAQQAIADVFCVNGDSEWRGLGVIESSGVHLTPDYQRFDAEAHFRPAPQQVCDDPRARCGEVLTGKCKPHQCPLFGNTCNPQTAFGALMVSSEGACAAWYQYRQQESEA
notes: Carries a [4Fe-4S] cluster; also called native HypD; WT HypD; source: E. coli BL21(DE3), co-expressed with HypC-Strep (phypDC) or with HypE, HypF and HybG-Strep (phypDEF-hybG); co-purified anaerobically
B2: HypC bearing a C-terminal StrepII-tag (natural protein, E. coli, UniProt P0AAM3 1-90, looked up)
chain: MCIGVPGQIRTIDGNQAKVDVCGIQRDVDLTLVGSCDENGQPRVGQWVLVHVGFAMSVINEAEARDTLDALQNMFDVEPDVGALLYGEEK
notes: HypC, hydrogenase maturation factor of E. coli; native HypC; also called HypC-Strep; Strep-tagged HypC; source: E. coli BL21(DE3) transformed with phypDC or phypD_(D98A)hypC, purified anaerobically (Strep tag); not shown: StrepII, C-terminal, kept
B3: HypD_(D98A) (untagged) (natural protein, E. coli, UniProt P24192 1-373, looked up)
chain: B1 chain with D98A
notes: HypD of E. coli with the D98A exchange, without a tag; source: co-purified anaerobically

How the values were obtained:
[1] = target: B2; assay: native MS; anaerobically purified HypC-Strep/HypD complexes buffer-exchanged into 500 mM ammonium acetate, pH 6.8, about 10 uM; nano-ESI Q-TOF; MS/MS with collision-induced dissociation (90 V) of the +12 charge state of the heterodimer; conditions: both partners purified
HypD (native, untagged) = target: B1; assay: pull-down; co-purification from BL21(DE3) cells by the StrepII tag (on HypD, HypC or HybG) under anoxic conditions; 5 ug of isolated protein on SDS-PAGE, immunoblot with anti-HypD or anti-HypE antiserum (1:1000); conditions: partners not purified
HypD_(D98A) (untagged) = target: B3; assay: as above; conditions: partners not purified

Binder | stoichiometry N [1] | binding result (HypD (native, untagged)) | binding result (HypD_(D98A) (untagged))
B1 | 1 ratio HypC:HypD | – | –
B2 | – | binds | binds
B3 | 1 ratio HypC:HypD | – | –
